The text below walks through data of US20220356245A1 (FORTY SEVEN, published 2022).

As a reminder, the IC50 is the concentration that inhibits the measured activity by half. A lower IC50 goes with greater potency in that assay. As a reminder, the EC50 is the concentration giving half of the maximal effect. As a reminder, the Kd is the concentration at which binding is half-saturated. A low value points to tighter binding. One may read the koff as a measure of how fast the partners let go of each other. A low value points to slow dissociation. By kon is commonly meant a measure of how fast the partners come together. A high value points to faster complex formation. The term EC95 denotes the concentration needed for an effect of 95%. A high value points to a need for much substance. The EC50 (read off the curve) is the concentration giving half of the maximal effect. The low end stands for an effect from little substance, the high end for a need for much substance.

In test [1] the target is T1, human CD47 (hCD47) expressed on cells (human, UniProt Q08722 19-323). Description: cell-based or functional assay.
In test [2] the target is T1, human CD47 (hCD47) expressed on cells. Description: flow cytometry, hCD47-CHO cells, competition with His-hSIRPα. On the technique in general: Flow cytometry measures light scatter and fluorescence of single cells or particles in a stream.
Description: Human CD47-transfected cells (3×10⁵ cells/well of 96-well plate) were first incubated at +4° C. for 30 minutes with serial dilutions of anti-CD47 antibodies or isotype control antibody (in mIgG2a or mIgG1 format). […] The percentage inhibition was plotted against antibody concentration and the IC50 values were calculated using a nonlinear regression analysis model of the GraphPad Prism software.
The target is the same in test [3]. Description: flow cytometry, Raji cells.
Description: (§1) Raji cells (ATCC-CLL-86; 2×10⁵ cells/well of 96-well plate) were first incubated at +4° C. for 30 minutes with serial dilutions of anti-CD47 antibodies or control isotype antibody (in mIgG2a or mIgG1 format). The cells were then washed and incubated for 30 minutes at +4° C. with a PE-conjugated F(ab)′2 goat anti-mouse IgG antibody ( 1/100 dilution, Beckman Coulter). After washings, the fluorescence of the cells was analyzed by flow cytometry on an Accuri-C6 flow cytometer (BD Biosciences).
(§2) The delta of MFI, representing the difference between the intensity measured with the tested antibody and the intensity in the absence of antibody, was calculated for each antibody concentration and the values were plotted against the antibody concentrations. The EC50 values were then calculated by using a nonlinear regression analysis model of the GraphPad Prism software.
For test [4], the target named is T2, hu-sCD47-6His; extracellular domain of human CD47 antigen with 6His-tag (human).
T2 construct: also called hCD47-his; soluble hCD47
As to the kind of experiment: SPR Biacore T200, antibody captured, hCD47-his analyte.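 Further: antibodies captured on anti-IgG (Fc) CM5 chip, five sequential 10 min antigen injections at rising concentrations, reference flow cell and antigen-free cycle as controls, 1:1 model fit.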

The target in test [5] is T1, human CD47 (hCD47) expressed on cells. Description: flow cytometry, Raji cells; lower end tied to candidate 15 by Table 6.
Description: as §1, §2
For test [6] the target is unchanged. Description: flow cytometry, Raji cells, competition with His-hSIRPα; lower end tied to candidates 14 and 15 by Table 7.
Description: (§3) The percent inhibition was plotted against antibody concentration and the IC50 values were calculated by using a nonlinear regression analysis model of the GraphPad Prism software.
The target is the same in test [7]. As to the kind of experiment: flow cytometry, Raji cells, competition with His-hSIRPα.
Description: as §3
Test [8] concerns the target T3, mouse CD47 (mCD47) expressed on CHO cells (mouse, UniProt Q61735 19-303).
T3 construct: whole, on cells; also called CHO-mCD47
T3 sequence (looked up): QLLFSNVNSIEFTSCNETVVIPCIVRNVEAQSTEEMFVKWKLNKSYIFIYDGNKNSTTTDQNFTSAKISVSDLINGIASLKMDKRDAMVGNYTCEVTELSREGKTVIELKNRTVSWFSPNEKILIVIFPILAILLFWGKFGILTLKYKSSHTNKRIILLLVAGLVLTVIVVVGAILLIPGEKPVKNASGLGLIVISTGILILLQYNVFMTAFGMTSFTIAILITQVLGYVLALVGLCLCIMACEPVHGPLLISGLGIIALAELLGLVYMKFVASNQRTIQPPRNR
As to the kind of experiment: flow cytometry, CHO-mCD47 cells.

Test [9] concerns the target T1, human CD47 (hCD47) expressed on cells. As to the kind of experiment: flow cytometry on Raji cells, hIgG4 format: inhibition of hSIRPα binding to hCD47.
The target is the same in test [10]. The test is described as above. The source holds these as a separate data set.
Test [11] concerns the target T2, hu-sCD47-6His; extracellular domain of …. Description: SPR Biacore. In general terms: Surface plasmon resonance follows binding to a sensor surface in real time, without labels.
Description: (§4) An anti-human or anti-mouse IgG (Fc) was first immobilized on the surface of Serie S Sensor Chips CM5 using the human or mouse antibody capture and amine coupling kits, following the manufacturer's instructions (GE Healthcare). […] The mouse, chimerized or humanized antibodies to be tested were then captured onto the appropriate anti-mouse or anti-human IgG surface in all flow cells except flow cell 1 used as control, at concentration and contact time adjusted so that ˜300 RU were captured on the surface. Binding kinetics were studied by passing increasing concentrations of hCD47-his in a series of five 10 minute injections through all flow cells at a rate of 30 μL/min. […] Following the final injection, buffer was passed across each flow cell for 60 minutes (mouse) or 30 minutes (human) to monitor the dissociation of bound antigen. Regeneration of the binding surface was carried out at the end of the cycle by flowing 3 M MgCl₂ for 60 s at 20 μL/min followed by 10 mM glycine-HCl, pH 1.7 for 180 s at 10 μl/min (for human) or by flowing 10 mM glycine-HCl, ph 1.7 for 360 s at 10 μl/min (for mouse). A second cycle with the same antibodies but no antigen was run as a control. Kinetics binding constants were estimated by non-linear fitting of the sensogram data to the 1:1 binding model provided by the Biacore T200 evaluation software.
Test [12] has the same target. As to the kind of experiment: ELISA, coated glycosylated hCD47-His. For orientation: An ELISA detects its analyte on a solid surface through an enzyme-linked reagent.
Description: (§5) The EC50 and EC95 values were calculated by using the non-linear regression/log (antibody) versus response (four parameters) model of the GraphPad Prism software.
In test [13] the target is T1, human CD47 (hCD47) expressed on cells. Description: flow cytometry on Raji cells, hIgG4 format, delta MFI.
Test [14] has the same target. The description is as above. The source holds these as a separate data set.
Test [15] shares this target. Description: flow cytometry on Raji cells, hIgG4 format: inhibition of hSIRPα binding to hCD47. The source holds these as a separate data set.
In test [16] the target is T4, N-deglycosylated soluble hCD47-His (PNGase treated) (human, N-glycans removed with PNGase).
T4 construct: also called deglycosylated-hCD47; N-Deglycosylated hCD47-His
Description: ELISA, coated N-deglycosylated hCD47-His.

The target in test [17] is T4, N-deglycosylated soluble hCD47-His …. Description: ELISA, one-site binding saturation fit, deglycosylated hCD47.
Description: (§6) The Bmax values were calculated by using the binding saturation/one-site binding model of the GraphPad Prism software (mean +/− SD of triplicates).
In test [18] the target is T1, human CD47 (hCD47) expressed on cells. Description: flow cytometry on Raji cells, hIgG4 format, delta MFI. This is another data set of the same source.
Test [19] shares this target. As to the kind of experiment: flow cytometry, Raji cells. The source holds these as a separate data set.
In test [20] the target is T2, hu-sCD47-6His; extracellular domain of …. As to the kind of experiment: SPR Biacore; head read as x 10^-4.
Description: as §4
Test [21] deals with T1, human CD47 (hCD47) expressed on cells. As to the kind of experiment: flow cytometry on Raji cells, hIgG4 format, delta MFI. This is another data set of the same source.
The target is the same in test [22]. Description: flow cytometry, Raji cells, competition with hSIRPα.
For test [23], the target named is T2, hu-sCD47-6His; extracellular domain of …. As to the kind of experiment: ELISA, one-site binding saturation fit, glycosylated hCD47.
Description: (§7) The equilibrium binding constant values were calculated by using the binding saturation/one-site binding model of the GraphPad Prism software (mean +/− SD of triplicates).
The target in test [24] is T1, human CD47 (hCD47) expressed on cells. Description: flow cytometry on Raji cells, hIgG4 format: inhibition of hSIRPα binding to hCD47. This is another data set of the same source.
In test [25] the target is T4, N-deglycosylated soluble hCD47-His …. As to the kind of experiment: ELISA; against glycosylated hCD47-His.
Description: as §5
For test [26] the target is unchanged. Description: ELISA, one-site binding saturation fit, deglycosylated hCD47. The source holds these as a separate data set.
Description: as §7
Test [27] addresses T1, human CD47 (hCD47) expressed on cells. As to the kind of experiment: flow cytometry, Raji cells. This is another data set of the same source.
For test [28], the target named is T2, hu-sCD47-6His; extracellular domain of …. Description: ELISA, one-site binding saturation fit, glycosylated hCD47. This is another data set of the same source.
Description: as §6
Test [29] has as its target T1, human CD47 (hCD47) expressed on cells. Description: flow cytometry, Raji cells, competition with hSIRPα. This is another data set of the same source.
In test [30] the target is T2, hu-sCD47-6His; extracellular domain of …. Description: SPR Biacore. The source holds these as a separate data set.
Description: as §4
For test [31], the target named is T1, human CD47 (hCD47) expressed on cells. As to the kind of experiment: flow cytometry on Raji cells, hIgG4 format, delta MFI. The source holds these as a separate data set.
Test [32] shares this target. Description: flow cytometry on Raji cells, hIgG4 format: inhibition of hSIRPα binding to hCD47. The source holds these as a separate data set.
Test [33] concerns the target T3, mouse CD47 (mCD47) expressed on CHO …. As to the kind of experiment: flow cytometry, CHO-mCD47 cells. The source holds these as a separate data set.
Test [34] addresses T1, human CD47 (hCD47) expressed on cells. Description: flow cytometry, Raji cells; upper end tied to candidate 19 by Table 6.
Description: as §1, §2
For test [35] the target is unchanged. As to the kind of experiment: flow cytometry, Raji cells, competition with His-hSIRPα; upper end tied to candidate 19 by Table 7.
Description: as §3

Read-outs that look alike come from different tables or passages of the source.

B1: Candidate 15 (VT008-AL6-18G1-18K21), mouse IgG (antibody, V domains shown)
VH: QVQLQQPGAELVKPGTSVKLSCKASGYTFINYWIHWVKQRPGRGLEWIGRIDPNTVDAKYNEKFKSKATLTVDKPSSIAYMQLSSLTSEDSAVYYCSRGGYTMDYWGQGTSVTVSS
VL: DVVMTQTPLSLPVSLGDQASISCRSSQSLVHSNGNTYLHWYLQKPGQSPTLLIYKVSNRFSGVPDRFSGSGSGTDFTLKISRVEAEDLGIYFCFQSTHVPWTFGGGTKLEIK
notes: Recombinant mouse IgG2a or mIgG1 format, by assay
On to B1, for which the “Phagocytic index, Raji cells and human macrophages, antibody at 0.125 µg/mL” value (from here on “Phagocytic index”) in [1] was 74.4 Raji cells ingested per 100 macrophages. The molecule further yielded a 50% inhibitory concentration (IC50) in test [2] of 0.605 µg/mL. Further, the midpoint of the response in [3], the EC50, lay at 0.031 µg/mL. In [4], this molecule registered a Kd of 4.24 nM, an off-rate (koff) of 0.00239 s⁻¹ and a kon of 565000 M⁻¹ s⁻¹. In test [5], this molecule gave a half-maximal effective concentration (EC50) of 0.2 nM.

B2: Candidate 14, chimeric hIgG format (hIgG1 or hIgG4) (antibody, V domains shown)
VH: QVQLQQPGAELVKPGASLRVSCKASGYTFTNYWMYWVRQRPGRGLEWIGWIDPNSGGTKYNEKFKSKATLTVDKPSSTAYMQLSSLTSEDSAVYNCARGGYTMDYWGQGTSVTVSS
VL: DVVMTQTPLSLPVSLGDQASISCRASQSLVHSNGNTYLHWYLQKPGQSPKLLIYKVSNRFSGVPDRFSGSGSGTDFTLKISRVEAEDLGVYFCSQSTHVPLTFGAGTKLELK
notes: also called Candidate 14 (hIgG format)
For the molecule B2, the figures for the IC50 in test [6] and in [7] were 0.14 nM and 0.021 µg/mL, respectively.

B3: Candidate 15, chimeric hIgG format (hIgG1 or hIgG4) (antibody, V domains shown)
VH: QVQLQQPGAELVKPGTSVKLSCKASGYTFINYWIHWVKQRPGRGLEWIGRIDPNTVDAKYNEKFKSKATLTVDKPSSIAYMQLSSLTSEDSAVYYCSRGGYTMDYWGQGTSVTVSS
VL: DVVMTQTPLSLPVSLGDQASISCRSSQSLVHSNGNTYLHWYLQKPGQSPTLLIYKVSNRFSGVPDRFSGSGSGTDFTLKISRVEAEDLGIYFCFQSTHVPWTFGGGTKLEIK
notes: also called Candidate 15 (hIgG format)
For B3, the IC50 was 0.14 nM in test [6] and 0.021 µg/mL in [7].

B4: Candidate 20 (VL008-AL18-14G4-14K1), mouse IgG (antibody, V domains shown)
VH: QVQLKQSGAELVRPGASVKLSCKASGYSFTDYYINWVKQRPGQGLEWIARIYPGIGNTYYNKKFKGKATLTAEKSSSTAYMQLNSLTSEDSAVYFCARGHYGRGMDYWGQGTSVTVSS
VL: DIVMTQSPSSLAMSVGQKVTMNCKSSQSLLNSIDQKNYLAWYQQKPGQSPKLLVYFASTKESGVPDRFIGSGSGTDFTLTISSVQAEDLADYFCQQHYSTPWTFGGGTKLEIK
notes: Recombinant mouse IgG2a or mIgG1 format, by assay; also called antibody 20
B4: the “Phagocytic index” value in [1] was 119 Raji cells ingested per 100 macrophages. Moreover, in [2], the concentration for half-maximal inhibition (IC50) is 0.44 µg/mL. Further, in [8], the binding result was “no binding (tested: 7.3 µg/mL highest concentration)”. Also, the response in [3] was half-maximal at 0.096 µg/mL (EC50). In test [4], this molecule had a Kd of 4.16 nM, a koff of 0.000418 s⁻¹ and an on-rate (kon) of 101000 M⁻¹ s⁻¹.

B5: hIgG4 chimeric candidate 20 (mouse VH0/VL0, human Fcγ4-S228P and human Kappa backbone) (antibody, V domains shown)
VH: QVQLKQSGAELVRPGASVKLSCKASGYSFTDYYINWVKQRPGQGLEWIARIYPGIGNTYYNKKFKGKATLTAEKSSSTAYMQLNSLTSEDSAVYFCARGHYGRGMDYWGQGTSVTVSS
VL: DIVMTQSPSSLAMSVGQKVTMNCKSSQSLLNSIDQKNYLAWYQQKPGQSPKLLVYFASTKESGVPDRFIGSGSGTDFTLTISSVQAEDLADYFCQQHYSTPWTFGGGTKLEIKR
notes: hIgG4-S228P/kappa; also called Chim; 20; Chim 20
B5: the “IC50 (read off the curve)” value in test [9], in test [10], in test [15], in test [24] and in [32] was around 0.2 µg/mL each time. Besides, the Kd in [11] turned out to be 2.48 nM; in [30], 3.22 nM. Also, the off-rate (koff) in [11] came to 0.000543 s⁻¹; in [20] it was 0.000505 s⁻¹. In addition, the kon worked out at 225000 M⁻¹ s⁻¹ in test [11] and 169000 M⁻¹ s⁻¹ in test [30]. Besides, the EC50 in test [12] stood at 0.028 nM; in test [16], 0.0474 nM; in test [19] it was 0.0751 µg/mL; in test [27] it was 0.15 µg/mL. The 95% effect concentration (EC95) stood at 0.667 nM in test [12] and 3.33 nM in [16]. Also, the “EC50 (read off the curve)” value in test [13], in [14], in test [18], in test [21] and in test [31] was around 0.1 µg/mL each time. The molecule further came in with a Bmax2 in test [17] of 2.2 OD value. For the same molecule, in test [8], the binding result is recorded as “no binding”. For the same molecule, the IC50 in test [22] was determined as 0.11 µg/mL; in test [29] it was 0.138 µg/mL. Also, the equilibrium binding constant was determined as 27.3 pM in [23] and 38.8 pM in test [26]. The “EC50 ratio Deglycosylated/Glycosylated” value in test [25] amounted to 1.7 ratio. Further, in test [25], the “EC95 ratio Deglycosylated/Glycosylated” value is 5 ratio. Also, the Bmax in test [28] was determined as 2.9 OD value.

B6: Candidate 19 (VL008-AL17-7G1-7K6), mouse IgG (antibody, V domains shown)
VH: QVQLQQSGPELVKPGASVKISCKASVYTFTDYYINWVKQRPGQGLEWVGWIFPGSGLTYYNKKFKGKATLTVDKSSSTAYMLLSSLTSEDSAVYFCARPYYGSRWDYAMDYWGQGTSVTVSS
VL: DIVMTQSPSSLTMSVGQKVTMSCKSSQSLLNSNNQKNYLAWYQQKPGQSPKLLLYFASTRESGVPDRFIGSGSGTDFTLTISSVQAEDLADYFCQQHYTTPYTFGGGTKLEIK
notes: as for B1
Turning to B6, the “Phagocytic index” value in [1] was 73.9 Raji cells ingested per 100 macrophages. The molecule further yielded a half-maximal inhibitory concentration (IC50) in test [2] of 0.858 µg/mL. Also, the binding result in test [33] is listed as “no binding (tested: 7.3 µg/mL highest concentration)”. A half-maximal effect in test [3] (EC50) was put at 0.165 µg/mL. The same molecule returned a concentration giving a half-maximal response (EC50) in test [34] of 1.1 nM. Further, in test [4], the dissociation constant (Kd) amounted to 2.25 nM, the koff amounted to 0.000176 s⁻¹ and the kon was 79000 M⁻¹ s⁻¹.

B7: Candidate 19, chimeric hIgG format (hIgG1 or hIgG4) (antibody, V domains shown)
VH: QVQLQQSGPELVKPGASVKISCKASVYTFTDYYINWVKQRPGQGLEWVGWIFPGSGLTYYNKKFKGKATLTVDKSSSTAYMLLSSLTSEDSAVYFCARPYYGSRWDYAMDYWGQGTSVTVSS
VL: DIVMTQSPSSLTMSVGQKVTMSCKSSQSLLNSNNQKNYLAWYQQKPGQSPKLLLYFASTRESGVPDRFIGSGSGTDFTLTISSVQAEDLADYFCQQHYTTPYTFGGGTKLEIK
notes: also called Candidate 19 (hIgG format)
With B7, the IC50 was found to be 2.46 nM in [35] and 0.369 µg/mL in [7].
